The record followed here is article PMC4833381.

The target of test [1] is HCMV gB of clinical strain TR (extracellular virions) (human cytomegalovirus, strain TR). Briefly: co-IP; IP-western: extracellular virions of HCMV clinical strain TR solubilized in 1% NP-40; IP with anti-gB MAb 15H7; gH signal read beside a linear range of gH/gL lysate (Image Studio, Licor).
Test [2] addresses HCMV gB of HCMV BADrUL131 (infected cells and extracellular virions) (human cytomegalovirus, BADrUL131) (UniProt P06473). Briefly: co-IP; IP-western, repeat with an additional BADrUL131 virion preparation solubilized in 1% NP-40; IP with anti-gB MAb 15H7; gH signal read beside a linear range of gH/gL lysate (Image Studio, Licor).
Test [3] deals with HCMV UL130 of HCMV BADrUL131 (extracellular virions) (human cytomegalovirus, BADrUL131) (UniProt P16772). Briefly: co-IP.
The target in test [4] is HCMV gL of HCMV BADrUL131 (extracellular virions) (human cytomegalovirus, BADrUL131) (UniProt P16832). Briefly: co-IP.
UniProt P16832, sequence (P16832 31-278): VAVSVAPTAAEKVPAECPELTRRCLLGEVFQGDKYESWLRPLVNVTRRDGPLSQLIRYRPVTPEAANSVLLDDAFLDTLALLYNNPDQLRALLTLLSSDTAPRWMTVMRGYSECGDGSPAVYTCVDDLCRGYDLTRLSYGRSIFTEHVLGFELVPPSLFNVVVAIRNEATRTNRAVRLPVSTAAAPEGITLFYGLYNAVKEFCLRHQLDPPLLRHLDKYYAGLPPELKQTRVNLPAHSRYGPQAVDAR
Test [5] deals with HCMV gB of HCMV BADrUL131 (infected cells and extracellular virions) (human cytomegalovirus, BADrUL131) (UniProt P06473). Briefly: co-IP.
Test [6] deals with HCMV glycoprotein gH, strain TR (Ad vector) (human cytomegalovirus, strain TR). Briefly: co-IP; IP-western: ARPE-19 cells transduced with Ad vectors, 1% NP-40 lysates; IP with anti-gH MAb 14-4b, anti-gB MAbs 9C1, 13H10, 15H7 or anti-FLAG MAb; protein-A agarose; blots for gB, gH, HSV-1 gH or HSV-1 gD; percent against 5% input (ImageJ).
Test [7] shares this target. Briefly: co-IP; pulse-chase: Ad-transduced ARPE-19 cells labeled 15 min with 35S-methionine/cysteine, chased 60, 120 or 240 min; 1% NP-40 extracts; IP with anti-gH MAb 14-4b; SDS-PAGE under reducing conditions.
Test [8] shares this target. Briefly: co-IP; IP-western: MRC-5 fibroblasts transduced with Ad vectors, 1% NP-40 lysates; IP with anti-gH MAb 14-4b; blot with anti-gB rabbit serum; percent against 5% input.
The target of test [9] is HCMV gB with a C-terminal FLAG epitope tag (Ad vector) (human cytomegalovirus) (UniProt P06473). Briefly: co-IP; IP-western: ARPE-19 cells transduced with Ad vectors, 1% NP-40 lysates; IP with anti-gH MAb 14-4b, anti-gB MAbs 9C1, 13H10, 15H7 or anti-FLAG MAb; protein-A agarose; blots for gB, gH, HSV-1 gH or HSV-1 gD; percent against 5% input (ImageJ).
For test [10], the target named is HCMV glycoprotein gB, lab strain AD169 (Ad vector) (human cytomegalovirus, strain AD169) (UniProt P06473). Described as above.

For the substance “HCMV gH of clinical strain TR (extracellular virions) (natural protein)”, the percent of the total gH co-IP'd with gB in test [1] is 16%.

“HCMV gH of HCMV BADrUL131 (infected cells and extracellular virions) (from UniProt P12824 24-743) (natural protein)” had a percent of the total gH co-IP'd with gB in test [2] of 21%. In addition, the percent of the total gH/gL precipitated with anti-UL130 serum in [3] stood at 24%. Also, the percent of the total gH IP'd with gL antibodies in test [4] was found to be 8%. The percent of the total gH/gL co-IP'd with gB in [5] came out at 50%.

“HCMV UL130 of HCMV BADrUL131 (extracellular virions) (from UniProt P16772) (natural protein)”: in test [5], the percent of the total co-IP'd with gB is 2.5%.

“HCMV glycoprotein gB, lab strain AD169 (Ad vector) (from UniProt P06473 32-906) (natural protein)”: the percent of the total gB co-IP'd with gH/gL is 16.5% in test [6] and 13% in [8]. Moreover, the gB complexed with gH/gL, percent of the gH/gL precipitated (pulse sample) in [7] was 38%.

“HCMV gO of HCMV BADrUL131 (extracellular virions) (from UniProt P16750 31-466) (natural protein)” showed a percent of the total co-IP'd with gB in test [5] of 1%.

On to “HCMV glycoprotein gH, strain TR (Ad vector) (natural protein)”, for which the percent of gH/gL co-IP'd with gB MAbs or anti-FLAG MAbs in test [9] and in test [10] was 1 to 6% in each case.

Regarding “HCMV gB of HCMV BADrUL131 (infected cells and extracellular virions) (from UniProt P06473 32-906) (natural protein)”, in test [3], the percent of the total gB precipitated with anti-UL130 serum was determined as 1%.
